From patent publication US20160137728A1

Target: T1, Thermus thermophilus wild type SlyD polypeptide (Thermus thermophilus)
T1 sequence: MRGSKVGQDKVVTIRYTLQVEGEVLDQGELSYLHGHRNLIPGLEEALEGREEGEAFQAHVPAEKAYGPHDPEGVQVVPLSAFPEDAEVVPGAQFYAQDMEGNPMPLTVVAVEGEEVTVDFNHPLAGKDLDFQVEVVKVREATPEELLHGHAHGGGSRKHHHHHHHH
Assay: ELISA, clone culture supernatant

reactivity [mE]: 32 mE
B1: MAb<h-IGF-1>M-11.09.15 (antibody, V domains shown)
VH: QVQLQQSGAELVRPGSSVKISCKASGYAFSNLWMNWVKQRPGQGLEWIGQIYPGDGDTNYYGDFKGKATLTADSSSSTAYMQLSRLTSEDSAVYFCARIGYYGMDYWGQGTSVTVSS
VL: DVVLTQTPLSLPVNIGDEASISCKSTKSLLSSDGLTYLDWYLQKPGQSPQVLIYLVSNRFSGVPDRFSGSGSGTDFTLKISRVEAEDLGVYYCFQSNYLPTFGAGTKLELK
